For test [1], the target named is T1, Human IL-33-his (human, UniProt O95760 112-270, biotinylated with EZ-Link NHS-Biotin where used as IL-33-his-biotin).
T1 sequence: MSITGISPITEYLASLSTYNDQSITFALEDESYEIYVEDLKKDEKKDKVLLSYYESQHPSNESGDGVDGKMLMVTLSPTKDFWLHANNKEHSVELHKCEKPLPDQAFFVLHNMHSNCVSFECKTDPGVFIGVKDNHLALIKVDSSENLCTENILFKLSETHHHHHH
Put plainly: cell-based or functional assay.

The target of test [2] is T1, Human IL-33-his. Nature of the test: indirect ELISA, biotinylated IL-33-his on streptavidin plate. The protocol:
The binding ability of murine antibody to human IL-33 protein was determined by indirect enzyme-linked immunosorbent assay (ELISA). The specific methods were as follows: The plate was pre-coated with biotin-avidin (SA) which was diluted in coating solution (50 mM carbonate coating buffer, pH 9.6) to 2 μg/ml at 4° C. overnight, then the plate was blocked with 5% skim milk powder at 37° C. for 2 hours and stored at −80° C. for later use. Biotinylated recombinant human IL-33-his protein was diluted to 0.5 μg/ml in coating solution (50 mM carbonate coating buffer, pH 9.6) and was added at 100 μl/well to the pre-coated SA plate, 37° C., 0.5 h. After washing the plate with PBST for 3 times, the antibodies to be tested were diluted by gradient with 1% BSA buffer and added into the blocked plate at 100 μl/well, and incubated at 37° C. for 1 hour. The plate was washed with PBST for 3 times, and the HRP-labeled goat anti-mouse IgG was added and placed at 37° C. for 30 min. After washing the plate with PBST for 3 times, the plate was patted on the absorbent paper to remove residual droplets as far as possible. […] OD values were read at 450 nm on the microplate reader to analyze the binding ability of the antibodies to be tested to the target antigen human IL-33-his.

The next test addresses T2, Cynomolgus IL-33-his (cynomolgus, UniProt A0A2K5W3I1 112-269, biotinylated in the ELISA of Example 6).
T2 construct: Bought protein; also called cynomolgus IL-33 protein; Cynomolgus monkeys IL-33
T2 sequence: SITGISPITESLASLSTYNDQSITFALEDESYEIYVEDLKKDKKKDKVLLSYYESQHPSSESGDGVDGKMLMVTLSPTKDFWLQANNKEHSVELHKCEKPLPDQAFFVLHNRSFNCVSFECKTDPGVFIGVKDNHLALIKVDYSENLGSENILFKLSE
Nature of the test: indirect ELISA, biotinylated cynomolgus IL-33-his on streptavidin plate. The protocol:
The binding ability of murine antibody to cynomolgus IL-33 was determined by indirect enzyme-linked immunosorbent assay (ELISA). The specific methods were as follows: The plate was pre-coated by biotin-avidin (SA) which was diluted in coating solution (50 mM carbonate coating buffer, pH 9.6) to 2 μg/ml at 4° C. overnight. The plate was blocked with 5% skim milk powder at 37° C. for 2 hours, and stored at −80° C. for later use. Biotinylated recombinant cynomolgus IL-33-his protein was diluted to 1 μg/ml in coating solution (50 mM carbonate coating buffer, pH 9.6) and was added at 100 μl/well to the pre-coated SA plate for 0.5 h at 37° C. After washing the plate with PBST for 3 times, the antibodies to be tested were diluted by gradient with 1% BSA buffer and added into the blocked plate with 100 μl/well, and incubated at 37° C. for 1 hour. The plate was washed with PBST for 3 times, and the HRP-labeled goat anti-mouse IgG was added and placed at 37° C. for 30 min. After washing the plate with PBST for 3 times, the plate was patted on the absorbent paper to remove residual droplets as far as possible. […] OD values were read at 450 nm on the microplate reader to analyze the binding ability of the antibody to the target antigen cynomolgus IL-33-his.

In test [3] the target is T1, Human IL-33-his. Put plainly: competition ELISA, antibody mixed with IL-33-his-biotin, ST2 on plate; competitor ST2. As for the experimental part:
ST2 is the only receptor for IL-33 that has been discovered so far. As a cytokine, IL-33 exerts its physiological function depending on ST2 signaling pathway, and the blocking activity of antibody can reflect the neutralizing activity thereof. The specific method was as follows: the plate was coated with 2 μg/ml ST2 PBS solution at 4° C. overnight; the plate was washed with PBST for 3 times, then the plated was blocked with 5% skim milk powder at 37° C. for 2 hours; the plate was washed with PBST for 3 times for later use. 20 ng/ml IL-33-his-biotin antigen diluted by 1% BSA was mixed with antibodies to be tested diluted by gradient with 1% BSA at 1:1 equal volume and incubated at 37° C. for […]. The mixture was added to a pre-coated ST2 plate and incubated at 37° C. for 1 h. The plate was washed with PBST for 3 times. HRP-labeled streptavidin secondary antibody was added at 1:8000 and incubated at 37° C. for 0.5 hours. After washing the plate with PBST for 3 times, the plate was patted on the absorbent paper to remove residual droplets as far as possible. 100 μl TMB was added to each well, and the plate was placed at room temperature (20±5° C.) for 5 minutes away from light; 50 μl 2M H₂SO₄ terminating solution was added to each well to terminate the substrate reaction. OD values were read at 450 nm on the microplate reader.

The target of test [4] is T1, Human IL-33-his. Put plainly: ELISA, IL-33-his-biotin on streptavidin plate, anti-human Fc detection. As for the experimental part:
SA protein was diluted to 2 μg/mL to coat ELISA plate at 100 μL/well overnight at 4° C. The plate was washed with PBST (PBS containing 0.05% Tween20) for 3 times, and blocked with 2% BSA prepared in PBS at 200 μL/well, at room temperature for 2 h. After the plate was washed twice with PBST, IL-33-his-biotin protein was diluted to 1 μg/mL with 1% BSA prepared in PBST, and was added to ELISA plate at 100 μL/well. The plate was incubated at room temperature for 1 h, and each monoclonal antibody was diluted with 1% BSA prepared in PBST in a 3-fold gradient. The highest concentration of antibody was 10 μg/mL, and the antibody was diluted for 12 gradients. Each diluted monoclonal antibody was added to ELISA wells with 100 μL/well, and the plate was incubated at room temperature for 1 h. Each sample was added to duplicate wells in parallel. The plate was washed with PBST for 3 times, and HRP-anti human IgG Fc secondary antibody prepared with PBST was diluted at an appropriate ratio, and was added to ELISA wells at 100 μL/well. The plate was incubated at room temperature for 1 h. After washing with PBST for 3 times, TMB developing solution was added at 100 μL/well. When the development met expectations, 2M H₂SO₄ was added to terminate the chromogenic reaction at 70 μL/well. Each reaction solution was shaken uniformly and OD450 nm was read on a microplate reader. The data was analyzed and EC₅₀ was calculated.

Test [5] concerns the target T1, Human IL-33-his. Nature of the test: competition ELISA, antibody mixed with IL-33-his-biotin, ST2-Fc on plate; competitor ST2-Fc. As for the experimental part: (§1) ST2-Fc protein was diluted to 1 μg/mL with ELISA coating solution to coat ELISA plate with 100 μL/well. The plate was placed in a wet box at 4° C. for 16 h for coating. The ELISA plate was washed 3 times with PBST, and then was blocked with 2% BSA prepared in PBS at 200 μL/well at room temperature for 2 h. The plate was washed once with PBST, and was patted dry to remove the excess blocking solution. Each monoclonal antibody was diluted with 1% BSA prepared in PBST in a 3-fold gradient. The highest concentration of antibody was 10 μg/mL, and the antibody was diluted for 11 gradients. The diluted antibody was mixed 1:1 with 10 ng/ml IL-33-his-biotin, and then the mixture was added into the ELISA well at 100 μL/well. The plate was incubated at room temperature for 1 h. Each concentration was added to duplicate wells in parallel (maximum final concentration of antibody was […], final concentration of IL-33-his-biotin was 5 ng/mL). Unbound or non-specifically bound primary antibodies were washed out. According to the instructions of the antibody, HRP labeled streptavidin secondary antibody was diluted to an appropriate concentration with antibody diluent solution, then it was added to ELISA plate with 100 μL/well, and was incubated at room temperature for 1 h. The ELISA plate was washed with PBST for 5 times, and was patted dry on absorbent paper to remove excess liquid. TMB developing solution was added with 100 μL/well for development to an appropriate degree. 2M H₂SO₄ was added with 70 μL/well to terminate development, and the absorbance was measured at 450 nm on a multifunctional microplate reader. The data were analyzed.

For test [6], the target named is T1, Human IL-33-his. Put plainly: competition ELISA: antibody mixed with IL-33-his-biotin, added to an ST2-Fc-coated plate, HRP-streptavidin; blocked ligand ST2-Fc. As for the experimental part:
as §1, with “According to the instructions of the antibody, HRP labeled streptavidin secondary antibody was diluted to an appropriate concentration with antibody diluent solution, then it was added to ELISA plate with 100 μL/well, and was incubated at room temperature for 1 h. The ELISA plate was washed with PBST for 5 times, and was patted dry on absorbent paper to remove excess liquid. TMB developing solution was added with 100 μL/well for development to an appropriate degree.” left out

B1: 871G1 (antibody, V domains shown)
VH: QVHLKESGPGLVAPSQSLSITCNVSGFSLSKYGVHWIRQTPGRGLDWLGVLRAGGTISYNSALMSRLSISEDISKSQVFLKMNDLQTDDSAIYFCARDHYYYSSFGGFASWGQGTLVTVSA
VL: DIQMTQSPASQSASLGESVTITCLASQTIGAWLAWYRQQPGKSPQLLIYAATRLADGVPSRFSGSGSGTKFSFKINNLQAEDFVIYYCQQLNSTPYTFGGGTRLEM
notes: Murine hybridoma antibody; also called murine antibody 871G1
B1: in the test with Human IL-33-his [1], the “IC50 of inhibition of IL-33-induced IL-6 expression in HUVEC cells” value turned out to be 1.66 nM and the “IC50 of inhibition of IL-33-induced IL-8 expression in HUVEC cells” value turned out to be 0.16 nM. This molecule gave a half-maximal effective concentration (EC50) with Human IL-33-his [2] of 0.14 nM. In the test with Cynomolgus IL-33-his, this molecule gave an EC50 of 0.04 nM. Besides, in the test with Human IL-33-his [3], the IC50 was 0.74 nM.

B2: 864F3-ch1 (antibody, human IgG4 S228P, kappa, V domains shown)
VH: QVQLKESGPGLVAPSQSLSITCTVSGFSLTNYGVHWVRLPPGKGLEWLGVIRAGGSSDYNSALMSRLNIRKDNSKSQVFLEMNSLQTADTAMYYCARDHYFSNSYGGSPYWGQGTLVTVSA
VL: DIQMTQSPASQSASLGESVTITCLASQTIATWLAWYQQKPGKSPQLLIYAATRLADGVPSRFSGSGSGTEFSFKISSLQAEDFVIYYCQQLYNTPYTFGGGTKLEIKR
notes: Chimeric: murine variable regions on human IgG4 (S228P) and human kappa constant regions; also called chimeric antibody 864F3-ch1
On to B2, for which the 50% effective concentration (EC50) with Human IL-33-his [4] worked out at 0.127 nM. The molecule further registered an IC50 in the test with Human IL-33-his [5] of 45.2 nM. Besides, the “IC50 (read off the curve)” value with Human IL-33-his [6] was approximately 6 nM.
